Test results published in the supplement of paper PMC12764529.
± gives the half width of the 95% confidence interval.

assay: folding stability dG unfold from trypsin proteolysis; higher = more stable
Procedure, shortened: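 Mini-proteins designed to be under 80 residues and free of cysteine were carried in a PA-tagged cDNA display construct and digested with trypsin and with chymotrypsin. Each protease was applied at 11 threefold-diluted concentrations, alongside a no-protease condition, before sequencing. K50 came from Bayesian fitting of the sequencing counts, and unfolding free energy was obtained by comparing it with a sequence-predicted unfolded-state K50 and a shared folded-state K50, for each protease separately or for both together. Designs were retained only if their AlphaFold2 dimer inter-PAE exceeded 15.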

“SAGGSAGGSAGGMKVIKLPGLTVEIEPGYSPSEPVKITITDPKTGKVTEYEIKIPPEELPSAGGSAGGSAGG [r7_834_JUSTAS]” and “SAGGDEIVERVRQLFEDLGFPVEIVDDDAPDGVLRVRISPEAVEKLGPLVINLPFPDIKEVRTELLPSAGGS [r8_318_TrMRF]” are within error of each other in “folding stability dG unfold” value: 0.915 ± 0.052 kcal/mol for the first, 0.968 ± 0.013 kcal/mol for the second.

Going from “SAGGSAGGSAGDVPPSETVTITVSSEAEKEAIKKEHPEVNLTFTEAEPPVAFDPTSDVTASAGGSAGGSAGG [r17_126_JUSTAS]” to “SAGMIKVEVVVPPEDPSKPPSEEELRALAEEVVRELGLDPAKHPIEIKREVVDPEKGVLRYTITVKLPSAGG [r19_244_JUSTAS]”, the “folding stability dG unfold” value rises from 0.842 ± 0.096 kcal/mol to 3.09 ± 0.092 kcal/mol.

Going from “SAGGSFEPKREIEITLPNGREIEVWRYPGEGQMWVKLRFPNNGQKVEIPVKSPEDAEDSLKKFLKNSAGGSA [r2_70_TrROS]” to “SAMRIVVPYRETLRLTGLPEDTPLEEFRERFERIFRRLMERGVRPVRIEIYEIGDERYIVVEIETPGGASAG [r14_158_TrMRF]”, the “folding stability dG unfold” value rises from -0.28 ± 0.29 kcal/mol to 2.907 ± 0.019 kcal/mol.

First: SAGGSMVSEEEIKEIVEKTAAELPEDAVEPVTVTIELPNPDGTTTVLTITITRSPTSISYTVSSSPAASAGG [r19_220_JUSTAS]
Second: SAGGSAGGKKTVEIEMTVDELLAALKSLSEEELKNVKIIGKDGKEFTLEDLEKNPGKIYKIEVKSAGGSAGG [r6_428_TrROS_Hall]
The “folding stability dG unfold” value of the first is higher: 3.56 ± 0.11 kcal/mol for the first, 0.694 ± 0.07 kcal/mol for the second.

First: SLGPLVELAELFPDFEPLGVEEEPLEDGGRLLRVIGRIPEIGAYLLIEVRLPPGGGIESIRAEWVPEDELSA [r9_274_TrMRF]
Second: SAGGMESTSIPLEFKFEGDEEKAKKKVEEEAKKIAEEKGIEIKIEVKFDPNKPTATVTILVKGKEVEESAGG [r13_845_JUSTAS]
The “folding stability dG unfold” value of the first is higher: 3.4 ± 0.12 kcal/mol for the first, -0.411 ± 0.058 kcal/mol for the second.

First: SAGGSAGGSAGGSGMVNLPEPIKVTKEEPLPDGSVRYTIEYPDSTITVFKYPDGIKIESSAGGSAGGSAGGS [r4_280_JUSTAS]
Second: SAGSPEELAEKIAEELAAEYEKKNPDKKPVKIEVKEVVVDPEGGSVTIKIKFYDPDGKPLAEPVITVESAGG [r19_53_JUSTAS]
The “folding stability dG unfold” value of the first is lower: 0.35 ± 0.049 kcal/mol for the first, 1.74 ± 0.17 kcal/mol for the second.

Going from “SGSSLLSETTEFVELPDDTFATVSTSTYYIPGSGEIVTKTTVTIYPPTGPPVTTTYTSTTTPEGVLVTESSA [r9_856_JUSTAS]” to “SAGGSAGGSAGGKPKLIVRVKIKNENGEEIEIEIEVETLDEAKEAAKKLGFEIVEVEVLSAGGSAGGSAGGS [r10_882_TrROS_Hall]”, the “folding stability dG unfold” value rises from 2.38 ± 0.13 kcal/mol to 3.94 ± 0.23 kcal/mol.

Compared with “SEAEEAARKLAEELGLEVEVVEVDEETGTVTVRVRFEDEPTVTITITFDEETGELTVTIEVRPPPPPPPESA [r9_1119_TrROS_Hall]”, “SAGGSAGGSAGGKTITLPPGMSEEELLEALKKAKPGDTITIEVDGKTYTLKVENGKITLTSAGGSAGGSAGG [r7_560_TrROS_Hall]” is lower in “folding stability dG unfold” value: 3.49 ± 0.23 kcal/mol for the first, 2.31 ± 0.14 kcal/mol for the second.

Compared with “SAGGSAGGSKPELVIPITFPVLVKNPLDGKIYPVKVEIHIFYYPDKPIIEITLINPDGKPFPFSAGGSAGGS [r12_283_TrMRF]”, “SAGGSAGGSAMTPEELLKAAEELAKKLNLKVEIEVKKNENGELTITVKVYKNGKLVKEFEIKSAGGSAGGSA [r18_369_TrROS_Hall]” is higher in “folding stability dG unfold” value: 2.13 ± 0.064 kcal/mol for the first, 3.06 ± 0.089 kcal/mol for the second.

First: SAGGDGPPKFEPISIPIGDGVIKIWRSPNGSIHLEIMPPGGKPVASKEYPFPDGRKLKLDIQVKPPEDSAGG [r13_584_TrROS]
Second: SAGGKVTLRAPVVVPKDKIEDFIDALREALEALGLKEFKDIEIKEIIEGDDYYIIDFEVTAEADLPELASAG [r5_575_TrMRF]
The “folding stability dG unfold” value of the first is lower: 0.394 ± 0.13 kcal/mol for the first, 2.65 ± 0.12 kcal/mol for the second.

Going from “SAGGSAGGSAGKTYTLTITTENGKTITLPKDVEVVYDEKTGYLYIKNKKTNKVIKVKLKDSAGGSAGGSAGG [r17_432_TrROS_Hall]” to “SAGGSAGGSAGGSMPVKLDEIIDYDPKKKVLTVLLTHPDGSKSLVVVPGKSIEEIKEANSAGGSAGGSAGGS [r4_357_TrMRF]”, the “folding stability dG unfold” value falls from 2.13 ± 0.051 kcal/mol to 0.314 ± 0.029 kcal/mol.

First: SAGGMKITKEGNELTLTYPNLTVTYDPNTGKMTITNPATGKTVTIPVPATSLEEKLAAVEEVKAALPSAGGS [r8_447_JUSTAS]
Second: SAGGEEEILRQIREAAKKGEEVTIVFPKGMSIEELKKLIEEELGVEVEEIKVEKNENGELTVTIKVKSAGGS [r16_318_TrROS_Hall]
The “folding stability dG unfold” value of the first is lower: 1.06 ± 0.025 kcal/mol for the first, 4.33 ± 0.24 kcal/mol for the second.

Compared with “SAGGSAMTTTTSTDPATNKTYVTVTFPKDEALVEEVKEELKKKGIKEIKVYEFPENDLVRVEITVGSAGGSA [r2_358_JUSTAS]”, “SAGGKTIWIFFPPDNPEEFLEELAQLPNVTDVEVWRHNDYYMIEIRLEGLPIEIHYNPEGYYMIEIELSAGG [r13_907_TrROS]” is higher in “folding stability dG unfold” value: 0.452 ± 0.098 kcal/mol for the first, 2.39 ± 0.14 kcal/mol for the second.

Compared with “SAGGSAGGSPDEGDPVKITILIMIMIPNENGEPYFIFIRVEITIDPKDNKIQITKIDEIYIFPSAGGSAGGS [r12_358_TrROS]”, “SAMIVKDLKTKEEIKKVLEEIAKKLGYPNVTPEEAEEILKKIGVKILSIEKNPKNPEKYIIKIKIEKPKSAG [r14_678_JUSTAS]” is lower in “folding stability dG unfold” value: 3.74 ± 0.16 kcal/mol for the first, 2.23 ± 0.1 kcal/mol for the second.

Going from “SAGGPPVAEIRVTEEDPETGVVRMEATLPEAPRPVRATGTRLDPGGGTVLVTVTDPDGGPDTTTTLAASAGG [r13_337_JUSTAS]” to “SAGGSAATTVAVNGKEITIVSVDPATGKVTIAVPENVPESVIQAAKDLLEAQGLPVEVKRVPPEKLSAGGSA [r15_570_JUSTAS]”, the “folding stability dG unfold” value rises from -0.308 ± 0.1 kcal/mol to 1.42 ± 0.044 kcal/mol.

For “SVPADAKPGVVPERVVLVIVVPPELLDEDGRLRPENLEIAAGEAAEAARKLREAFPDVPIEDVGVVVVEGSA [r9_943_TrMRF]”, the “folding stability dG unfold” value was 0.869 ± 0.02 kcal/mol.
